Data as given in US8632989B1, “Mutant insulin degrading enzyme and methods of use” (University of Kentucky Research Foundation, priority 2011, dated 2014).

How the values were obtained:
[1] = biological target: T1, Abz-GGFLRKHGQ-EDDnp (Rattus norvegicus, UniProt P35559); assay: Activation by ATP of Abz-[…]-EDDnp hydrolysis, IDE and ATP binding site mutants; type: biochemical; details: 10 μM Abz-GGFLRKHGQ-EDDnp as substrate
T1 construct: hexahistidine (N); made in house; host or cells: Sf9 insect cells (baculovirus, pFastBac HTb)
T1 sequence (P35559 41-1019): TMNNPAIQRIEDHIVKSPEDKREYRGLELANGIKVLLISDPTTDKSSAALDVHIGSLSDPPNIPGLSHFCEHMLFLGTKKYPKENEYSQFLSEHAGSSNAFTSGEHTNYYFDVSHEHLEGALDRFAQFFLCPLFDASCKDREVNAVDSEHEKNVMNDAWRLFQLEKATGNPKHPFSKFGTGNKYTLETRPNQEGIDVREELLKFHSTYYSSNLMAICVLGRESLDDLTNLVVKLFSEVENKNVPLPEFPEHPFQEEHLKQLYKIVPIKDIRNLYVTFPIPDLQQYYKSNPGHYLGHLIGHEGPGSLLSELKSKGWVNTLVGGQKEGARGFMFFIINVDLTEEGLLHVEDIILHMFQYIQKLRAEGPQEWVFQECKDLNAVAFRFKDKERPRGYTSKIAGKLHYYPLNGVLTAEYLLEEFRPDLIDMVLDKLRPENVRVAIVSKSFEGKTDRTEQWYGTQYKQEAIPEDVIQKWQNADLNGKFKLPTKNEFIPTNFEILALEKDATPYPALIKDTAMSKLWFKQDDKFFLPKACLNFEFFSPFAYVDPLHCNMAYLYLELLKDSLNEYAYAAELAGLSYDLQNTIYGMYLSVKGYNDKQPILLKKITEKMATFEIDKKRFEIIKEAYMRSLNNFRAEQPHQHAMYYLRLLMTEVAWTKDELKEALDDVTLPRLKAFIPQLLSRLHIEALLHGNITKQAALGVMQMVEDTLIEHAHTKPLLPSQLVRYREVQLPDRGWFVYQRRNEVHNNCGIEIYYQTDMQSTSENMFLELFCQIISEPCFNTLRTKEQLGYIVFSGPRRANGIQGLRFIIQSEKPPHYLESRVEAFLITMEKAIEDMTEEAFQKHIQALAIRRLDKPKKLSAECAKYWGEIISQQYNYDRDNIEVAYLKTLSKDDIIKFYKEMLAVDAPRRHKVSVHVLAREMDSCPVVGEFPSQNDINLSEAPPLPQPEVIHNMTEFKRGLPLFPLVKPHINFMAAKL
Method: Activity was determined in 50 mM Tris-HCl, pH 7.4 with 10 μM Abz-[…]-EDDnp (SEQ ID NO:3) as substrate at the indicated concentrations of ATP (panel A), PPPi (panel B) or, TNP-ATP (panel C). Each reaction contained 0.5 μg of enzyme.
IDE activity was determined by measuring the increase in fluorescence that occurs when the enzyme cleaves the internally quenched fluorogenic substrate Abz-[…]-EDDnp (SEQ ID NO:3) at the R—K bond (Song et al., Journal of Biologial Chemistry 276, 1152-1155 (2001)). The reaction was followed on a SpectraMax Gemini XS fluorescence plate reader using an excitation and emission wavelengths of 318 nm and 419 nm, respectively. Initial velocities were determined using SoftMax Pro 4.0 and kinetic constants calculated using GraphPad Prism 4.0. ATPase activity was measured by following Pi release with acid-molybdate as described by Harder et al. (Harder et al., Biochemical Journal 298 (Pt 2), 395-401 (1994)).

[2] = system: Abz-GGFLRKHGQ-EDDnp; assay: Enzyme activity assay, kinetics of wild type rIDE and distal site mutants with fluorogenic substrate; type: biochemical
Method: FIG. 17. Effects of distal site mutations. (A) Comparison of the kinetics of wild type IDE with the distal site mutants. Activity was measured with varying amounts of Abz-[…]-EDDnp (SEQ ID NO:3) substrate as indicated. Either hyperbolic (Michaelis-Menten equation) or sigmoidal curves (Hill equation) were fit to the data. (B) Effect of bradykinin on the activity of wild type IDE and the distal site mutants. (C) Activation of wild type IDE and distal site mutants by ATP. Relative activity is the fold activation above the level of the wild type enzyme alone.
The activity of IDE was measured by following the increase in fluorescence upon hydrolysis at the L-R bond of the fluorogenic peptide Abz-[…]-EDDnp (SEQ ID NO:3) on a SpectraMax Gemini XS fluorescence plate reader using an excitation wavelength of 318 nm and emission wavelength of 419 nm. Reactions were carried out in 200 μl volumes containing 50 mM Tris-HCl, pH 7.4, 1.92 μg of wild type rIDE, 4.6 μg of rIDE-V360S, 4.3 μg rIDE-I374S, or 1.63 μg of rIDE-Y609F. For measurements of activation by bradykinin, IDE activity was determined with 10 μM Abz-[…]-EDDnp (SEQ ID NO:3) as substrate in 50 mM Tris-HCl buffer, pH 7.4. The amount of protein was 0.5 μg for wild type rIDE and 5 μg for each of the IDE distal-site mutants. Data were analyzed using Softmax 4.0 (Molecular Devices) and kinetic parameters calculated with Prism (Graphpad Software). […] Under these assay conditions, both wild type and mutant rIDE are almost completely dimeric.

B1: IDE: Native rat insulin degrading enzyme (SEQ ID NO:1), expressed as hexahistidine fusion protein in Sf9 insect cells (protein, listed as Rattus norvegicus)
chain: MRNGLVWLLHPALPSTLHSILGARPPPVKRLCGFPKQIYSTMNNPAIQRIEDHIVKSPEDKREYRGLELANGIKVLLISDPTTDKSSAALDVHIGSLSDPPNIPGLSHFCEHMLFLGTKKYPKENEYSQFLSEHAGSSNAFTSGEHTNYYFDVSHEHLEGALDRFAQFFLCPLFDASCKDREVNAVDSEHEKNVMNDAWRLFQLEKATGNPKHPFSKFGTGNKYTLETRPNQEGIDVREELLKFHSTYYSSNLMAICVLGRESLDDLTNLVVKLFSEVENKNVPLPEFPEHPFQEEHLKQLYKIVPIKDIRNLYVTFPIPDLQQYYKSNPGHYLGHLIGHEGPGSLLSELKSKGWVNTLVGGQKEGARGFMFFIINVDLTEEGLLHVEDIILHMFQYIQKLRAEGPQEWVFQECKDLNAVAFRFKDKERPRGYTSKIAGKLHYYPLNGVLTAEYLLEEFRPDLIDMVLDKLRPENVRVAIVSKSFEGKTDRTEQWYGTQYKQEAIPEDVIQKWQNADLNGKFKLPTKNEFIPTNFEILALEKDATPYPALIKDTAMSKLWFKQDDKFFLPKACLNFEFFSPFAYVDPLHCNMAYLYLELLKDSLNEYAYAAELAGLSYDLQNTIYGMYLSVKGYNDKQPILLKKITEKMATFEIDKKRFEIIKEAYMRSLNNFRAEQPHQHAMYYLRLLMTEVAWTKDELKEALDDVTLPRLKAFIPQLLSRLHIEALLHGNITKQAALGVMQMVEDTLIEHAHTKPLLPSQLVRYREVQLPDRGWFVYQRRNEVHNNCGIEIYYQTDMQSTSENMFLELFCQIISEPCFNTLRTKEQLGYIVFSGPRRANGIQGLRFIIQSEKPPHYLESRVEAFLITMEKAIEDMTEEAFQKHIQALAIRRLDKPKKLSAECAKYWGEIISQQYNYDRDNIEVAYLKTLSKDDIIKFYKEMLAVDAPRRHKVSVHVLAREMDSCPVVGEFPSQNDINLSEAPPLPQPEVIHNMTEFKRGLPLFPLVKPHINFMAAKL
modifications: hexahistidine tag; wild-type Insulin Degrading Enzyme (IDE) from rat
activation by ATP [1]: roughly 150 fold | Specific activity ([2]; Abz-GGFLRKHGQ-EDDnp substrate): 8,131 nmol/min/mg | Km ([2]; rat IDE, Abz-GGFLRKHGQ-EDDnp as substrate): 15.9 ± 1.19 µM | Vmax ([2]; rat IDE, Abz-GGFLRKHGQ-EDDnp as substrate, 50 mM Tris-HCl, pH 7.4): 35.5 ± 11.6 nmol/min/mg | Hill coefficient ([2]; rat IDE, Abz-GGFLRKHGQ-EDDnp as substrate, listed as Wild Type): 1.8 ± 0.16 | Hill coefficient ([2]; rat IDE, Abz-GGFLRKHGQ-EDDnp as substrate, listed as wild type enzyme): 1.80
